± gives the half width of the 95% confidence interval.

The record followed here is the supplement of paper PMC12764529.

The nature of series [1]: folding stability dG unfold (combined trypsin and chymotrypsin); higher = more stable. In a few lines:
(§1)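 Digests were run with trypsin and chymotrypsin at 11 concentrations in threefold dilutions, plus a no-protease condition, on designed mini-proteins in a PA-tagged cDNA display construct. The mini-proteins were under 80 residues, had no cysteine, and were kept only when AlphaFold2 dimer inter-PAE was above 15. After sequencing, Bayesian fitting of the counts gave K50, from which unfolding free energy was derived against a sequence-predicted unfolded-state K50 and a shared folded-state K50, per protease or combined.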

Series [2] in a line: folding stability dG unfold from chymotrypsin proteolysis; higher = more stable. A digest of the protocol:
as §1

A short description of series [3]: folding stability dG unfold from trypsin proteolysis; higher = more stable. In a few lines: as §1

Turning to “SAGGSAGGSAGGSIVVRITPNPETGTVTIDVYRVLPPGVLRPGAGFTVPLSLIPPGAVVGSAGGSAGGSAGG [r7_455_TrMRF]”, the results for the “folding stability dG unfold” value in series [1], in series [2] and in series [3] were 1.09 ± 0.053 kcal/mol, 1.17 ± 0.047 kcal/mol and 0.973 ± 0.018 kcal/mol, respectively.
Taken in the same sequence, the figures for “SAGGSAGGSAGGSKDITITHEHNPNGWYRVKIRFPDNGKKIEIWVPAGRSVEEALDWLFSAGGSAGGSAGGS [r4_393_TrROS]” were 3.25 ± 0.12 kcal/mol, 3.2 ± 0.038 kcal/mol and 3.06 ± 0.12 kcal/mol.
Take “SAGGSAGGSAGGSKELTVLVVEKNEDGTLTVRKFKIELKDGELKIVEEEEKTVPLEELKSAGGSAGGSAGGS [r4_389_TrROS_Hall]”: the figures for the “folding stability dG unfold” value in series [1], in series [2] and in series [3] were 2.04 ± 0.12 kcal/mol, 2.42 ± 0.037 kcal/mol and 1.41 ± 0.074 kcal/mol, respectively.
Taken in the same sequence, the figures for “SAGGSAGGSAGGSKETVKIAIKVKPGEKEITIEIKGKKYKVKVEEKDGLLYLTVSKEDLSAGGSAGGSAGGS [r4_430_TrROS_Hall]” were 3.34 ± 0.32 kcal/mol, 3.44 ± 0.22 kcal/mol and 4.4 ± 0.54 kcal/mol.
The matching figures for “SAGGSAGGSAGGSKIRLKINMTEEELKELLKKLFPNAKVTRIERKKDGSIYVEIELEPESAGGSAGGSAGGS [r4_95_TrROS_Hall]”: 3.09 ± 0.11 kcal/mol, 3.23 ± 0.082 kcal/mol and 2.94 ± 0.11 kcal/mol.
On to “SAGGSAGGSAGGSKKKKIIIVVPKEELSEEQIKALKDLGYEIEIVEVEKKPVKVKKKKKSAGGSAGGSAGGS [r4_294_TrROS_Hall]”, for which the figures for the “folding stability dG unfold” value in series [1], in series [2] and in series [3] were 1.53 ± 0.22 kcal/mol, 2.08 ± 0.12 kcal/mol and 0.62 ± 0.068 kcal/mol, respectively.
With “SAGGSAGGSAGGSKKKVLYIKIDVKPNMTPEEVAKLLQEKFGVKIKKVEVENGYLKIYFSAGGSAGGSAGGS [r4_469_TrROS_Hall]”, the “folding stability dG unfold” value in series [1] came out at 3.49 ± 0.048 kcal/mol; in series [2], 3.8 ± 0.044 kcal/mol; in series [3] it was 2.82 ± 0.062 kcal/mol.
Taken in the same sequence, the figures for “SAGGSAGGSAGGSKKYFFKIKKIKVETKLEVNEDGSLTEEKKIEIEIELRELPSLEDLLSAGGSAGGSAGGS [r4_450_TrROS_Hall]” were 4.16 ± 0.2 kcal/mol, 4.62 ± 0.17 kcal/mol and 3.56 ± 0.25 kcal/mol.
On to “SAGGSAGGSAGGSKPKVKITIEKNKETNEYTITIEKDGKKYTFVVKNLKPDDPAIKKALSAGGSAGGSAGGS [r4_328_TrROS_Hall]”, for which the “folding stability dG unfold” value in series [1] turned out to be 2.55 ± 0.09 kcal/mol; in series [2], 3.007 ± 0.03 kcal/mol; in series [3], 1.1 ± 0.043 kcal/mol.
The matching figures for “SAGGSAGGSAGGSKTVLLKVNGKLVLKELKVEVELEAEPETTTTTTTTTTLKPGETKTLSAGGSAGGSAGGS [r4_215_TrROS_Hall]”: 0.109 ± 0.096 kcal/mol, 0.397 ± 0.11 kcal/mol and -0.499 ± 0.17 kcal/mol.
Taken in the same sequence, the figures for “SAGGSAGGSAGGSKTYRIYFKDNNKVITVKSKEDLKAALEKAGYTISEEDLDKIVKIEPSAGGSAGGSAGGS [r4_104_TrROS_Hall]” were 1.8 ± 0.087 kcal/mol, 1.81 ± 0.07 kcal/mol and 1.69 ± 0.046 kcal/mol.
Taken in the same sequence, the figures for “SAGGSAGGSAGGSLAFEGSFRFRKLKLTFKRKLTRTRPDGEPEEFEEELELEVEVVLPVSAGGSAGGSAGGS [r4_418_TrMRF]” were 4.21 ± 0.4 kcal/mol, 4.84 ± 0.15 kcal/mol and 3.77 ± 0.09 kcal/mol.
For “SAGGSAGGSAGGSLEAIRKAIEEAQKNGHTVPISVRHPNGKDFTFEIEIQVVKPPPDEKSAGGSAGGSAGGS [r10_573_TrROS]”, the “folding stability dG unfold” value in series [1] was 1.46 ± 0.13 kcal/mol; in series [2] it was 1.47 ± 0.066 kcal/mol; in series [3], 1.28 ± 0.043 kcal/mol.
Taken in the same sequence, the figures for “SAGGSAGGSAGGSLEIEITFELPDDVRLRIRARIEPLPDGSLKVEVEIELIPVKPDEDLSAGGSAGGSAGGS [r10_241_TrMRF]” were 3.09 ± 0.21 kcal/mol, 2.9 ± 0.089 kcal/mol and 3.17 ± 0.15 kcal/mol.
Taken in the same sequence, the figures for “SAGGSAGGSAGGSLETRPVLLILKDEEGKPYAVARLEVRELPNGGVEVTVTEIVPAEELSAGGSAGGSAGGS [r4_117_TrMRF]” were 1.36 ± 0.11 kcal/mol, 1.5 ± 0.095 kcal/mol and 0.912 ± 0.035 kcal/mol.
The matching figures for “SAGGSAGGSAGGSLPLILRLAEENGFSVSAVPIPETGTYKAVVTLPDGKPITIELPLTLSAGGSAGGSAGGS [r4_121_TrMRF]”: 0.804 ± 0.2 kcal/mol, 1.04 ± 0.33 kcal/mol and 0.295 ± 0.12 kcal/mol.
For the sequence “SAGGSAGGSAGGSMATITPEGDKYLVTITNPDGSTTTKEFDSLEEVKKLPSSYPIEFSDSAGGSAGGSAGGS [r4_447_JUSTAS]”, the entries for the “folding stability dG unfold” value in series [1], in series [2] and in series [3] were 1.52 ± 0.094 kcal/mol, 0.802 ± 0.026 kcal/mol and 2.11 ± 0.065 kcal/mol, respectively.
Taken in the same sequence, the figures for “SAGGSAGGSAGGSMIIRIETKDGKIIEIEIKEDEDKTPEEIAKELAKKYNIKKIEIFEPSAGGSAGGSAGGS [r4_116_TrROS_Hall]” were 3.44 ± 0.096 kcal/mol, 3.57 ± 0.062 kcal/mol and 3.27 ± 0.12 kcal/mol.
The matching figures for “SAGGSAGGSAGGSMITIEVTTPTEKHTIEVPEDEVPEEELIERAKKLFPDVEKITILKESAGGSAGGSAGGS [r4_235_JUSTAS]”: 0.636 ± 0.08 kcal/mol, 0.613 ± 0.059 kcal/mol and 0.65 ± 0.037 kcal/mol.
The matching figures for “SAGGSAGGSAGGSMIVVPVTSNEVVDNLGGPVTVPAGTVIIIERTENSVKVEVLPPEKLSAGGSAGGSAGGS [r10_353_JUSTAS]”: 0.643 ± 0.11 kcal/mol, 0.353 ± 0.019 kcal/mol and 0.917 ± 0.048 kcal/mol.
“SAGGSAGGSAGGSMKEVTITLTDPETGKVSTLVLKLSPEEIEKAAEELAKSSGKKVTIRSAGGSAGGSAGGS [r4_301_JUSTAS]”: the “folding stability dG unfold” value was 1.78 ± 0.13 kcal/mol in series [1], 1.99 ± 0.066 kcal/mol in series [2] and 1.04 ± 0.068 kcal/mol in series [3].
The matching figures for “SAGGSAGGSAGGSMKIEIVTNDPKKAEEIKEKLEKEGYPKKKNPINIEVKEISEEELLKSAGGSAGGSAGGS [r4_281_JUSTAS]”: 0.533 ± 0.16 kcal/mol, 0.628 ± 0.053 kcal/mol and -0.113 ± 0.085 kcal/mol.
The matching figures for “SAGGSAGGSAGGSMLPPDTTVTSTTFLPNGTVVNTTTTYTATPDDTYTVTTTTTTTPLTSSAGGSAGGSAGG [r7_249_JUSTAS]”: 0.766 ± 0.11 kcal/mol, 0.631 ± 0.16 kcal/mol and 0.765 ± 0.037 kcal/mol.
Taken in the same sequence, the figures for “SAGGSAGGSAGGSMLVELDENGKTLTIYDEETQELIEVEVEPAPPVEETVTEVSEEELKSAGGSAGGSAGGS [r4_56_TrROS_Hall]” were 0.375 ± 0.26 kcal/mol, 0.000558 ± 0.08 kcal/mol and 0.666 ± 0.098 kcal/mol.
With “SAGGSAGGSAGGSMPENLVTITTETTVVKSPLANPVNESPVWEVEVISSPVTVVPPSLLSAGGSAGGSAGGS [r4_417_JUSTAS]”, the “folding stability dG unfold” value in series [1] is 0.812 ± 0.1 kcal/mol; in series [2] it was 0.0877 ± 0.12 kcal/mol; in series [3], 1.25 ± 0.087 kcal/mol.
In the case of “SAGGSAGGSAGGSMSGVFSTETVFLEKTLPDGSRVEALTTIETYLPLPPLPPFKFPSAVSAGGSAGGSAGGS [r4_325_JUSTAS]”, the “folding stability dG unfold” value was determined as 0.437 ± 0.26 kcal/mol in series [1], 0.415 ± 0.13 kcal/mol in series [2] and 0.13 ± 0.1 kcal/mol in series [3].
